In article PMC5636895:
Each block holds one molecule with its values, some of them ahead of it. Ends that are not written are not given here.

Legend:
[1] = target: platelet integrin αIIbβ3 (human) (UniProt P05106); assay: optical trap-based force spectroscopy; as a5, with free γC-12 or cRGDFK present; concentrations not given
[2] = target: platelet integrin αIIbβ3 (human) (UniProt P05106); assay: optical trap-based force spectroscopy; as a7, with free γC-12 or cRGDFK present; concentrations not given
[3] = target: platelet integrin αIIbβ3 (human) (UniProt P05106); assay: optical trap-based force spectroscopy; as a1, with a competitive antagonist of αIIbβ3 (γC-12, cRGDFK or eptifibatide) present; concentrations not given
[4] = target: polymerized fibrin (human) (UniProt P02679); assay: optical trap-based force spectroscopy; as a1, but with non-activated αIIbβ3 (no Mn^2+ activation) on the bead
[5] = target: fibrinogen (human) (UniProt P02671); assay: optical trap-based force spectroscopy; Mn^2+-activated αIIbβ3 on a laser-trapped latex bead tapped against a silica pedestal covalently coated with fibrinogen; 0.1 M HEPES, pH 7.4, 2 mg/ml BSA, 0.1% Triton X-100; two-state fit of the rupture force profile
[6] = target: monomeric fibrin (human) (UniProt P02679); assay: optical trap-based force spectroscopy; Mn^2+-activated αIIbβ3 on a laser-trapped latex bead tapped against a silica pedestal covalently coated with monomeric fibrin; 0.1 M HEPES, pH 7.4, 2 mg/ml BSA, 0.1% Triton X-100; two-state fit of the rupture force profile
[7] = target: polymerized fibrin (human) (UniProt P02679); assay: optical trap-based force spectroscopy; Mn^2+-activated αIIbβ3 (or BSA) on a laser-trapped 2.0 µm latex bead tapped against the edge of a fibrin clot in a flow chamber; 0.1 M HEPES, pH 7.4, 2 mg/ml BSA, 0.1% Triton X-100; 5 Hz, 800 nm amplitude; clot from re-calcified plasma or from purified fibrinogen, which one gave the tabulated data is not given; two-state fit of the rupture force profile

Sequence of UniProt P02679 (P02679 whole entry, looked up): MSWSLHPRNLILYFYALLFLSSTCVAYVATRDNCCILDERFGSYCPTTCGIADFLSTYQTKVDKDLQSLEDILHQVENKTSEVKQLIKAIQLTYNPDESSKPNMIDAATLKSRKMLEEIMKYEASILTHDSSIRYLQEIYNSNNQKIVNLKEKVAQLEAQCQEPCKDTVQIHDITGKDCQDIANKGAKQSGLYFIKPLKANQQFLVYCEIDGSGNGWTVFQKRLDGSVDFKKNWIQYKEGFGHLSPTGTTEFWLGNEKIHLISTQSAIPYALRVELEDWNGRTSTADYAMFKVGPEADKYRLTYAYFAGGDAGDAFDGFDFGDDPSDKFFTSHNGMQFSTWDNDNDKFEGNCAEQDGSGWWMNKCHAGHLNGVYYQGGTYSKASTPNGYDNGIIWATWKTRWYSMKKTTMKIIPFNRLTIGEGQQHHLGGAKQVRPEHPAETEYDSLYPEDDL
Sequence of UniProt P02671 (P02671 36-866, chain 1 of 3): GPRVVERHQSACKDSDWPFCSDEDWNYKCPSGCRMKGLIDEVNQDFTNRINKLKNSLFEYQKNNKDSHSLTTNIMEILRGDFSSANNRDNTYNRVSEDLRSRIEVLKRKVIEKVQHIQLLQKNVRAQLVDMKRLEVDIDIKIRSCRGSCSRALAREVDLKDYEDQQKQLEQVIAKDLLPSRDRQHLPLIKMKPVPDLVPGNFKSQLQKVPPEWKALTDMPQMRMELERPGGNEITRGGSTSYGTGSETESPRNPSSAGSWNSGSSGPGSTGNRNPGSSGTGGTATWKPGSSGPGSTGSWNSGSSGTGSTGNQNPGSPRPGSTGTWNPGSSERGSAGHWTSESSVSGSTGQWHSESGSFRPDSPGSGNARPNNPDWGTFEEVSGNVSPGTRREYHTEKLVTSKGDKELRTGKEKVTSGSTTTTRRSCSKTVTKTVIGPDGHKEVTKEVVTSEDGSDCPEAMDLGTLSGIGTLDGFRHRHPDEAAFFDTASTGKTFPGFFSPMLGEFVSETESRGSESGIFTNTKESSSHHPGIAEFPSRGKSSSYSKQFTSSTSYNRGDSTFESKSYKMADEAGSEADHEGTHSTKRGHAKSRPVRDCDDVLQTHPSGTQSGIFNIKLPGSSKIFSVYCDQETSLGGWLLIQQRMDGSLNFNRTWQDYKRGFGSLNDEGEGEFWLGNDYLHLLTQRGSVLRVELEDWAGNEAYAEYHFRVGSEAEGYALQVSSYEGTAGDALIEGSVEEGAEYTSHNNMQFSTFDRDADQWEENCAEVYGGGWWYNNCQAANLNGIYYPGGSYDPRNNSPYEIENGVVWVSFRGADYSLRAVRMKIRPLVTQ
Sequence of UniProt P02671 (P02675 45-491, chain 2 of 3, further chain): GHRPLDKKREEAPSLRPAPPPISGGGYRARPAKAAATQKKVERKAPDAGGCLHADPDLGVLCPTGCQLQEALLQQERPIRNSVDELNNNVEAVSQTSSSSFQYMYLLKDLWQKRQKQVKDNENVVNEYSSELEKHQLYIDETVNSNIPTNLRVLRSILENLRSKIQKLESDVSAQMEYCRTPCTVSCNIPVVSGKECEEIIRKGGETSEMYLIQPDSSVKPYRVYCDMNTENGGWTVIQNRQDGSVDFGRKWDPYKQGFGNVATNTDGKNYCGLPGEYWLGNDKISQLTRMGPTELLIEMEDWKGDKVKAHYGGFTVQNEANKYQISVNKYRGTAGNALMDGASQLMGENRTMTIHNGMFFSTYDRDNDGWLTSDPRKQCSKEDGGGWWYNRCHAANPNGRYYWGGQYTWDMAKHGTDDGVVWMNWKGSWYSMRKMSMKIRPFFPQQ
Sequence of UniProt P02671 (P02679 other isoform, or with tags, fused parts or gaps, chain 3 of 3, further chain): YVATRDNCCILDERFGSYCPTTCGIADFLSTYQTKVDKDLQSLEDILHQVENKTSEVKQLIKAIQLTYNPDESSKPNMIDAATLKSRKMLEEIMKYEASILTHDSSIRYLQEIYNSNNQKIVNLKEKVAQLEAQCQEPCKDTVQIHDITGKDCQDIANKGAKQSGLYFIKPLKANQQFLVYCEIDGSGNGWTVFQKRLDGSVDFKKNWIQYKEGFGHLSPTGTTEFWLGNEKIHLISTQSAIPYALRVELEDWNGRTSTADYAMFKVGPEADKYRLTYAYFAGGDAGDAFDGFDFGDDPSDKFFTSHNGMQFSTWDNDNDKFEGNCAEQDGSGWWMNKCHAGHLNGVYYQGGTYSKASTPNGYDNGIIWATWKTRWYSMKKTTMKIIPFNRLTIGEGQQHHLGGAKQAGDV

- cumulative binding probability of αIIbβ3 to m-fibrin with γC-12 present, rupture forces 30–60 pN [1]: 7.4%
- cumulative binding probability of αIIbβ3 to m-fibrin with γC-12 present, rupture forces >60 pN [1]: 12.3%
- cumulative binding probability of αIIbβ3 to fibrinogen with γC-12 present, rupture forces 30–60 pN [2]: 1.8%
- cumulative binding probability of αIIbβ3 to fibrinogen with γC-12 present, rupture forces >60 pN [2]: 0.2%
- cumulative binding probability of αIIbβ3 to p-fibrin with γC-12 present, rupture forces 30–60 pN [3]: 2.1%
- cumulative binding probability of αIIbβ3 to p-fibrin with γC-12 present, rupture forces >60 pN [3]: 0.8%
Molecule: fibrinogen γC-dodecapeptide (from UniProt P02679-2 426-437)

- cumulative binding probability, rupture forces 30–60 pN [4]: 4.7%
- cumulative binding probability, rupture forces >60 pN [4]: 1.7%
- cumulative binding probability, rupture forces 30–60 pN [5]: 4.8%
- cumulative binding probability, rupture forces >60 pN [5]: 3.6%
- highest rupture force [5]: < 140 pN
- initial probability of the high-affinity state (two-state fit) [5]: 0.0063
- peak of the strong rupture forces [5]: 70 to 80 pN
- cumulative binding probability, rupture forces 30–60 pN [6]: 21%
- cumulative binding probability, rupture forces >60 pN [6]: 22%
- highest rupture force [6]: < 140 pN
- initial probability of the high-affinity state (two-state fit) [6]: 0.0181
- peak of the strong rupture forces [6]: 70 to 80 pN
- cumulative binding probability, rupture forces 30–60 pN [7]: 4.6%
- cumulative binding probability, rupture forces >60 pN [7]: 3.2%
- initial probability of the high-affinity state (two-state fit) [7]: 0.014
- peak of the strong rupture forces [7]: 70 to 80 pN
Molecule: platelet integrin αIIbβ3 (from UniProt P05106 27-788) (receptor)

- cumulative binding probability of αIIbβ3 to m-fibrin with cRGDFK present, rupture forces 30–60 pN [1]: 5.1%
- cumulative binding probability of αIIbβ3 to m-fibrin with cRGDFK present, rupture forces >60 pN [1]: 2.7%
- cumulative binding probability of αIIbβ3 to fibrinogen with cRGDFK present, rupture forces 30–60 pN [2]: 2.5%
- cumulative binding probability of αIIbβ3 to fibrinogen with cRGDFK present, rupture forces >60 pN [2]: 0.3%
- cumulative binding probability of αIIbβ3 to p-fibrin with cRGDFK present, rupture forces 30–60 pN [3]: 2.2%
- cumulative binding probability of αIIbβ3 to p-fibrin with cRGDFK present, rupture forces >60 pN [3]: 0.6%
Molecule: RGDFK (also: cyclic, ring type not given here) [cyclic RGDFK peptide]
